Reference: publication PMC11101452, “Structures of the mumps virus polymerase complex via cryo-electron microscopy” (Nature Communications, 2024)

Molecular target: the molecule itself
Assay: cryo-EM structure; L–P complex co-expressed in Sf9 and co-purified by the Strep tag of L; 2.0 μM; annealed and unannealed samples combined; 150 mM NaCl, 20 mM Tris-HCl, 6 mM MgCl2, 1 mM TCEP, pH 8.0; two conformations (L_(integral)–P, L_(body)–P)

B1: mumps virus (strain Jeryl-Lynn) phosphoprotein (P) (natural protein)
chain: MDQFIKQDETGDLIETGMNVANHFLSTPIQGTNSLSKASILPGVAPVLIGNPEQKNIQHPTASHQGSKTKGRGSGVRSIIVSPSEAGNGGTQIPEPLFAQTGQGGIVTTVYQDPTIQPTGSYRSVELAKIGKERMINRFVEKPRTSTPVTEFKRGGPGAAAQGQTIQEEGIDGNGASAGSKERSGSLSGATLYAHLSLPQQDSTPANVGIAPQSAISANEIMDLLRGMDARLQHLEQKVDKVLAQGSMVTQIKNELSTVKTTLATIEGMMATVKIMDPGNPTGVPVDELRRSFSDHVTIVSGPGDVSFSSSEKPTLYLDELARPVSKPRPAKQTKSQPVKDLAGQKVMITKMITDCVANPQMKQAFEQRLAKASTEDALNDIKRDIIRSAI
notes: Phosphoprotein (P) of mumps virus strain Jeryl-Lynn, GenBank AAF70389.1; domains NTD, OD, Linker2, CTD (with XD); Four P molecules (P1-P4) stand in the L–P complex; only POD, Linker2 and part of PCTD are resolved; also called MuV P; P1; not shown: Flag, C-terminal, kept
stoichiometry N: 4
